Assay results: US20190054150A1 (AEQUUS BIOPHARMA, published 2019)
Square brackets hold non-standard residues; d marks the D form. Ends that are not written are not given here. Nle = CCCC[C@H](N)C(=O)O

Tests used:
Assay in all cases: cell-based or functional assay
MCR1 = MCR1 (human, UniProt Q01726 1-317)
MCR3 = MCR3 (human, UniProt P41968 1-323)
MCR4 = MCR4 (human, UniProt P32245 1-332)
MCR5 = MCR5 (human, UniProt P33032 1-325)
MCR5, sequence (P33032 whole entry): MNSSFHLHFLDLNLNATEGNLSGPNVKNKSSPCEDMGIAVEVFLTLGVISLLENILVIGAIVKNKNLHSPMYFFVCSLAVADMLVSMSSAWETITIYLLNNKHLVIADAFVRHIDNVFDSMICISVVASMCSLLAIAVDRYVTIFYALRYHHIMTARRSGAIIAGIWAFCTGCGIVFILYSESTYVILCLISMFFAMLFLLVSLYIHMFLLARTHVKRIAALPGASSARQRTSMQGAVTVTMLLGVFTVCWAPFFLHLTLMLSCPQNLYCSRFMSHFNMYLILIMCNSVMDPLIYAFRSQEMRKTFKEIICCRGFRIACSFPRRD

MCR4, sequence (P32245 whole entry): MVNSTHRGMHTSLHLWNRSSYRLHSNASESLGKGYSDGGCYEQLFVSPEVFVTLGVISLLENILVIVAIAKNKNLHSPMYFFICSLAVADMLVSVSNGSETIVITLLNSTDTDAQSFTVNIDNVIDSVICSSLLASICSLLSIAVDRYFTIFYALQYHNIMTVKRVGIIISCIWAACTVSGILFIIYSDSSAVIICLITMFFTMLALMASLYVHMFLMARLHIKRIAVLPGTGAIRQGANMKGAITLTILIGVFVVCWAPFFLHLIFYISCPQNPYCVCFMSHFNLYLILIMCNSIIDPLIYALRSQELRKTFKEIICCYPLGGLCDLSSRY
MCR3, sequence (P41968 whole entry): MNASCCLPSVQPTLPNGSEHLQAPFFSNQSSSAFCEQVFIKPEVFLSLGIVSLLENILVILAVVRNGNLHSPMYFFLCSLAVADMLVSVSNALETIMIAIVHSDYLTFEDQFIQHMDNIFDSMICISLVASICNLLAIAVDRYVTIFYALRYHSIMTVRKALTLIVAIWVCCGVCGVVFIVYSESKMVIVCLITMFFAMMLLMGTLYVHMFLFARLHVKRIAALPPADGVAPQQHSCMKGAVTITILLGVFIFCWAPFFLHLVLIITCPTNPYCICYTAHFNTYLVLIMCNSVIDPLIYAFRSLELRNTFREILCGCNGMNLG
MCR1, sequence (Q01726 whole entry): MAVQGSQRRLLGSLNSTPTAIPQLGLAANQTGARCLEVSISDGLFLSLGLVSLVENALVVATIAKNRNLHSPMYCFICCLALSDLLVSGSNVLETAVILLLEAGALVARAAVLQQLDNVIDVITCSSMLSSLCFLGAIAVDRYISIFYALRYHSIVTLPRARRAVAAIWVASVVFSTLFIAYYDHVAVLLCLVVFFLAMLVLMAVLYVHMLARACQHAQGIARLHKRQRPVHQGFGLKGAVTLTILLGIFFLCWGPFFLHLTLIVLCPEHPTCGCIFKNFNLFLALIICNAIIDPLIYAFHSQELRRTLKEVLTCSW

## SYSMEHFRWGKPVGKKAAAVKVYPGGGSSYS[Nle]EH[dF]RWGKPV (ends and bridges not checked) [ACTH1-24-point-3-5-4aa-NDP-α-MSH]
MCR1
  MCR1 EC50 (nM); cAMP production, LANCE cAMP assay, CHO-MCR1 cells, cell pool C: 0.3 nM
MCR3
  MCR3 EC50 (nM); cAMP production, LANCE cAMP assay, CHO-MCR3 cells, cell pool C: 0.61 nM
MCR4
  MCR4 EC50 (nM); cAMP production, LANCE cAMP assay, CHO-MCR4 cells, cell pool C: 2.4 nM
MCR5
  MCR5 EC50 (nM); cAMP production, LANCE cAMP assay, CHO-MCR5 cells, cell pool C: 14 nM

## SYSMEHFRWGKPVGKKRRPVKVYPGGGSSYS[Nle]EH[dF]RWGKPV (ends and bridges not checked) [ACTH1-24-4aa-NDP-α-MSH]
MCR1
  MCR1 EC50 (nM); cAMP production, LANCE cAMP assay, CHO-MCR1 cells, cell pool C: 0.41 nM
MCR3
  MCR3 EC50 (nM); cAMP production, LANCE cAMP assay, CHO-MCR3 cells, cell pool C: 0.92 nM
MCR4
  MCR4 EC50 (nM); cAMP production, LANCE cAMP assay, CHO-MCR4 cells, cell pool C: 1.9 nM
MCR5
  MCR5 EC50 (nM); cAMP production, LANCE cAMP assay, CHO-MCR5 cells, cell pool C: 9.3 nM

## SYSMEHFRWGKPVGAARRPVKVYPGGGGSGGSYS[Nle]EH[dF]RWGKPV (ends and bridges not checked) [ACTH1-24-point-1-2-7aa-NDP-α-MSH]
MCR1
  MCR1 EC50 (nM); cAMP production, LANCE cAMP assay, CHO-MCR1 cells, cell pool C: 0.3 nM
MCR3
  MCR3 EC50 (nM); cAMP production, LANCE cAMP assay, CHO-MCR3 cells, cell pool C: 0.47 nM
MCR4
  MCR4 EC50 (nM); cAMP production, LANCE cAMP assay, CHO-MCR4 cells, cell pool C: 2.3 nM
MCR5
  MCR5 EC50 (nM); cAMP production, LANCE cAMP assay, CHO-MCR5 cells, cell pool C: 10 nM

## SYSMEHFRWGKPVGKKRRAVKVYPGGGGSGGGGSSYS[Nle]EH[dF]RWGKPV [ACTH1-24-point-5-10aa-NDP-α-MSH]
MCR1
  MCR1 EC50 (nM); cAMP production, LANCE cAMP assay, CHO-MCR1 cells, cell pool C: 0.69 nM
MCR3
  MCR3 EC50 (nM); cAMP production, LANCE cAMP assay, CHO-MCR3 cells, cell pool C: 1 nM
MCR4
  MCR4 EC50 (nM); cAMP production, LANCE cAMP assay, CHO-MCR4 cells, cell pool C: 2.8 nM
MCR5
  MCR5 EC50 (nM); cAMP production, LANCE cAMP assay, CHO-MCR5 cells, cell pool C: 11 nM

## SYSMEHFRWGKPVGKKRRAVKVYPGGGGSGGSYS[Nle]EH[dF]RWGKPV [ACTH1-24-point-5-7aa-NDP-α-MSH]
MCR1
  MCR1 EC50 (nM); cAMP production, LANCE cAMP assay, CHO-MCR1 cells, cell pool C: 0.22 nM
MCR3
  MCR3 EC50 (nM); cAMP production, LANCE cAMP assay, CHO-MCR3 cells, cell pool C: 0.76 nM
MCR4
  MCR4 EC50 (nM); cAMP production, LANCE cAMP assay, CHO-MCR4 cells, cell pool C: 2.1 nM
MCR5
  MCR5 EC50 (nM); cAMP production, LANCE cAMP assay, CHO-MCR5 cells, cell pool C: 12 nM

## SYSMEHFRWGKPVGAARRPVKVYPGGGSSYS[Nle]EH[dF]RWGKPV (ends and bridges not checked) [ACTH1-24-point-1-2-4aa-NDP-α-MSH]
MCR1
  MCR1 EC50 (nM); cAMP production, LANCE cAMP assay, CHO-MCR1 cells, cell pool C: 0.25 nM
MCR3
  MCR3 EC50 (nM); cAMP production, LANCE cAMP assay, CHO-MCR3 cells, cell pool C: 0.42 nM
MCR4
  MCR4 EC50 (nM); cAMP production, LANCE cAMP assay, CHO-MCR4 cells, cell pool C: 1.7 nM
MCR5
  MCR5 EC50 (nM); cAMP production, LANCE cAMP assay, CHO-MCR5 cells, cell pool C: 11 nM

## SYSMEHFRWGKPVGKKAAAVKVYPGGGGSGGSYS[Nle]EH[dF]RWGKPV (ends and bridges not checked) [ACTH1-24-point-3-5-7aa-NDP-α-MSH]
MCR1
  MCR1 EC50 (nM); cAMP production, LANCE cAMP assay, CHO-MCR1 cells, cell pool C: 0.41 nM
MCR3
  MCR3 EC50 (nM); cAMP production, LANCE cAMP assay, CHO-MCR3 cells, cell pool C: 0.72 nM
MCR4
  MCR4 EC50 (nM); cAMP production, LANCE cAMP assay, CHO-MCR4 cells, cell pool C: 2.4 nM
MCR5
  MCR5 EC50 (nM); cAMP production, LANCE cAMP assay, CHO-MCR5 cells, cell pool C: 8.5 nM

## SYSMEHFRWGKPVGKKRRPVKVYPGGGGSGGSYS[Nle]EH[dF]RWGKPV (ends and bridges not checked) [ACTH1-24-7aa-NDP-α-MSH]
MCR1
  MCR1 EC50 (nM); cAMP production, LANCE cAMP assay, CHO-MCR1 cells, cell pool C: 0.24 nM
MCR3
  MCR3 EC50 (nM); cAMP production, LANCE cAMP assay, CHO-MCR3 cells, cell pool C: 0.85 nM
MCR4
  MCR4 EC50 (nM); cAMP production, LANCE cAMP assay, CHO-MCR4 cells, cell pool C: 1.5 nM
MCR5
  MCR5 EC50 (nM); cAMP production, LANCE cAMP assay, CHO-MCR5 cells, cell pool C: 13 nM

## SYSMEHFRWGKPVGKKRRAVKVYPGGGSSYS[Nle]EH[dF]RWGKPV [ACTH1-24-point-5-4aa-NDP-α-MSH]
MCR1
  MCR1 EC50 (nM); cAMP production, LANCE cAMP assay, CHO-MCR1 cells, cell pool C: 0.32 nM
MCR3
  MCR3 EC50 (nM); cAMP production, LANCE cAMP assay, CHO-MCR3 cells, cell pool C: 0.68 nM
MCR4
  MCR4 EC50 (nM); cAMP production, LANCE cAMP assay, CHO-MCR4 cells, cell pool C: 1.8 nM
MCR5
  MCR5 EC50 (nM); cAMP production, LANCE cAMP assay, CHO-MCR5 cells, cell pool C: 20 nM
